Assay results: patent US20260250737A1, “Engineered Luciferases and Luciferin Substrates” (Monod Bio, Inc., priority 2023, published 2026)
Numbering of substitutions follows the chain as printed. Like-named read-outs stand apart in the source and are kept apart here.

Assays:
[1] = tested on: MBIO-301-derived split enzyme; assay: Bioluminescence emission of synthetic luciferin substrates with MBIO-301-derived split enzyme (FRB:FKBP, rapamycin); type: biochemical; conditions: 1 nM MBIO-557, 1 nM MBIO-563, 10 μM Substrate, 100 nM Rapamycin
Protocol: The MBIO-301 enzyme was split into two components: MBIO-557 (Small portion) and MBIO-563 (Large portion). • MBIO-557 has the following sequence: NRVDEVRVYINGSGS (SEQ ID NO:2735) • MBIO-563 has the following sequence:
Bioluminescence emission of synthetic luciferin substrates was measured. The luciferin substrates were incubated with MBIO-301-derived split enzyme. The two-component MBIO-301 split luciferase enzyme was fused to the rapamycin inducible FRB:FKBP system and incubated with its complementary part at a 1:1 ratio. Each of the molecules was incubated with 1×PBS, 0.5% Propylene Glycol, 0.05% Anti-foam, 100 mM Imidazole, 10 mM Ascorbic Acid buffer, 100 nM Rapamycin and emission signal was measured using a Synergy H1 plate reader.
In-well concentrations: 1 nM MBIO-557 (EGFP-FRB-Small portion), 1 nM MBIO-563 (EGFP-FKBP-Large portion), 10 μM Substrate, 100 nM Rapamycin.

[2] = tested on: LuxSit; type: biochemical; conditions: inclusion in assay buffer at pH8
Protocol: Assay buffers that increase and stabilize the signal output of luciferase assay were tested. Inclusion of Imidazole increased the brightness of LuxSit at pH8.
In-well concentrations were 185 pM of enzyme and 10 μM DTZ. […] In-well concentrations of DTZ was 10 μM.

[3] = target: T1, LgLux_4039; assay: cell-based or functional assay
T1 chain: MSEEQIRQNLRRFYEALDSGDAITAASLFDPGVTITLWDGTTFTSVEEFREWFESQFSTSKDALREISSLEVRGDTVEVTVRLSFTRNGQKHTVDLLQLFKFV

[4] = target: T2, MBIO-5338; assay: cell-based or functional assay
T2 chain: T1 chain with T41A, H92Q

[5] = target: T3, MBIO-5340; assay: cell-based or functional assay
T3 chain: T1 chain with S2T, I6L, R11L, E48K

[6] = target: T4, LgLux_4039 variant S19C (SEQ ID NO:2805); assay: cell-based or functional assay
T4 chain: T1 chain with S19C

[7] = target: T5, MBIO-5339; assay: cell-based or functional assay
T5 chain: T1 chain with R11L, I23V, S45T

[8] = target: T6, MBIO-5335; assay: cell-based or functional assay
T6 chain: T1 chain with S2C, R11L, V46I, E54D

[9] = target: T7, MBIO-5341; assay: cell-based or functional assay
T7 chain: T1 chain with P31S

[10] = target: T1, LgLux_4039; assay: cell-based or functional assay
[11] = target: T8, MBIO-5336; assay: cell-based or functional assay
T8 chain: T1 chain with R11L

[12] = target: T9, MBIO-5342; assay: cell-based or functional assay
T9 chain: T1 chain with E54G, S55T, R87S

[13] = target: T10, MBIO-5337; assay: cell-based or functional assay
T10 chain: T1 chain with R11L, D30N

[14] = Luciferase activity of circularly permuted LuxSit-i variants; type: biochemical; conditions: circularly permuted proteins; 5 nM protein, 10 μM DTZ
Protocol: FIG. 6A provides kinetic profile over one hour of circularly permuted LuxSit-i variants. Variants were diluted in PBS and combined 1:1 with DTZ substrate, resulting in final in-well concentrations of 5 nM protein/variant and 10 μM DTZ.
Variants were diluted in PBS and combined 1:1 with DTZ substrate, resulting in final in-well concentrations of 5 nM protein and 10 μM DTZ.

O=c1c(Cc2ccccc2)nc2c(-c3ccccc3)[nH]c(-c3ccccc3)cn1-2 [DTZ, Diphenylterazine, reference compound]
Fold Change with Rapamycin Addition at Initial Read [1]: 58.4

c1c[nH]cn1 [Imidazole]
brightness of LuxSit [2]: increased

B1: SmLux_4039 (peptide)
peptide: RVVAVRVYVNPTG
Baseline Signal (Normalized by expression) [3]: 123000 | Fold change upon Rap addition [3]: 1.5 fold | Baseline Signal (Normalized by expression) [4]: 18900 | Fold change upon Rap addition [4]: 2.2 fold | Baseline Signal (Normalized by expression) [5]: 6670 | Fold change upon Rap addition [5]: 2.2 fold | Baseline Signal (Normalized by expression) [6]: 3670 | Fold change upon Rap addition [6]: 2 fold | Baseline Signal (Normalized by expression) [7]: 28300 | Fold change upon Rap addition [7]: 1.9 fold | Baseline Signal (Normalized by expression) [8]: 23800 | Fold change upon Rap addition [8]: 1.9 fold | Baseline Signal (Normalized by expression) [9]: 10400 | Fold change upon Rap addition [9]: 2.2 fold | Baseline Signal (Normalized by expression) [10]: 22100 | Fold change upon Rap addition [10]: 1.9 fold | Baseline Signal (Normalized by expression) [11]: 16400 | Fold change upon Rap addition [11]: 2.1 fold | Baseline Signal (Normalized by expression) [12]: 3360 | Fold change upon Rap addition [12]: 2 fold | Baseline Signal (Normalized by expression) [13]: 14900 | Fold change upon Rap addition [13]: 2.1 fold

B2: SEQ ID NO 2227: circularly permuted protein from MBIO-148, inpaint length 32 (protein)
chain: GQKHVVVLVHTFRFRGNRVTEVEVEIIPCPSLDEASIAAAIAEAEALAAERLAELGAPPPSISEEQIRQFLRRFYEALDSGDADTAASLFHPGVTIHLWDGVTFTSREEFREWFERLFSTSKDAWREIVSLRVVGDTVVVVVVLHFTLN
luciferase activity compared to SEQ ID NO:2600 [14]: similar

B3: SEQ ID NO 2236: circularly permuted protein from MBIO-148, inpaint length 32 (protein)
chain: GQKHVVVLVHTFRFRGNRVTEVRVEIIPAPSLDEESIEARVAEARRLAEERLAELGDPPPSISEEQIRQFLRRFYEALDSGDADTAASLFHPGVTIHLWDGVTFTSREEFREWFERLFSTSKDAWREIVELRVRGDTVVVVVVLHFTLN
luciferase activity compared to SEQ ID NO:2600 [14]: similar
